Measured values reported in patent US20150203577A1 (Chugai, published 2015).
Numbering of substitutions follows the chain as printed.

T1: mouse FcγRII extracellular domain, C-terminally His-tagged (mouse, UniProt P08101 30-210)
T1 construct: the whole entry is named; also called mFcγRII; mFcgRII
T1 sequence: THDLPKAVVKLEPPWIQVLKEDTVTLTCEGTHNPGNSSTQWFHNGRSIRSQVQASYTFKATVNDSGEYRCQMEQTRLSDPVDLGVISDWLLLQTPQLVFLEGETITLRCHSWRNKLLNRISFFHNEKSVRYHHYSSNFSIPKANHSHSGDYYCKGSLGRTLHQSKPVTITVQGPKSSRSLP

T2: mouse FcγRIII extracellular domain, C-terminally His-tagged (mouse, UniProt P08508 31-215)
T2 construct: the whole entry is named; also called mFcγRIII; mFcgRIII
T2 chain: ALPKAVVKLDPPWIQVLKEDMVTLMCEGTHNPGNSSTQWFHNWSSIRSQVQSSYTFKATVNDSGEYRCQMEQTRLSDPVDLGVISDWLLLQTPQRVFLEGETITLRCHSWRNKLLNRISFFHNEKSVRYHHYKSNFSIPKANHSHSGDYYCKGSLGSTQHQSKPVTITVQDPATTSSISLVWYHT

T3: mouse FcγRII (mouse, UniProt P08101 30-210)
T3 construct: Extracellular domain with C-terminal His tag, made in FreeStyle 293 cells; also called mFcγRII; mFcgRII
T3 sequence: T1 sequence

T4: mouse FcγRIII (mouse, UniProt P08508 31-215)
T4 construct: Extracellular domain with C-terminal His tag, made in FreeStyle 293 cells; also called mFcγRIII; mFcgRIII
T4 chain: T2 chain

B1: H237-MB546/MRAL-k0 (antibody, mouse IgG1, kappa)
heavy: QVQLQESGPGLVKPSETLSLTCAVSGHSISHDHAWSWVRQPPGEGLEWIGFISYSGITNYNPSLQGRVTISRDNSKNTLYLQMNSLRAEDTAVYYCARSLARTTAMDYWGEGTLVTVSSAKTTPPSVYPLAPGSAAQTNSMVTLGCLVKGYFPEPVTVTWNSGSLSSGVHTFPAVLQSDLYTLSSSVTVPSSTWPSETVTCNVAHPASSTKVDKKIVPRDCGCKPCICEPNEVEMVFIFPPKPKDVLTITLTPKVTCVVVDISKDDPEVQFSWFVDDVEVHTAQTQPREEQFNLTFRSVSELPIMHQDWLNGKEFKCRVDSAAFPAPIERTISKTKGRPKAPQVYTIPPPKEQMAKDKVSLTCMITDFFPEDITVEWQWNGQPAENYKNTQPIMDTDGSYFVYSKLNVQKSNWEAGNTFTCSVLHEGLHNHHTEKSLSHSPGK
light: not shown
notes: copies: 2 + 2
B2: H237-MB548/MRAL-k0 (antibody, mouse IgG1, kappa)
heavy: B1 heavy with L294S, A322D
light: not shown
notes: copies: 2 + 2
B3: H237-MB547/MRAL-k0 (antibody, mouse IgG1, kappa)
heavy: B1 heavy with D320N, A322D
light: not shown
notes: copies: 2 + 2
B4: H237-MB549/MRAL-k0 (antibody, mouse IgG1, kappa)
heavy: B1 heavy with A322D
light: not shown
notes: copies: 2 + 2
B5: H237-MB528/MRAL-k0 (antibody, mouse IgG1, kappa)
heavy: B1 heavy with E229Q, M235E, D320N, A322D, R330K
light: not shown
notes: copies: 2 + 2
B6: H237-MB722/MRAL-k0 (antibody)
heavy: B1 heavy with P230A, N231Y, V233E, M235D, L294S, D320N, R330K
light: not shown
notes: copies: 2 + 2
B7: H237-MB719/MRAL-k0 (antibody, mouse IgG1, kappa)
heavy: B1 heavy with M235Q, L294S, D320N, R330K
light: not shown
notes: copies: 2 + 2
B8: H237-MB853/MRAL-k0 (antibody, mouse IgG1, kappa)
heavy: B1 heavy with M235L, Q291L, L294S, D320N, A322D, A323G, P327Y, R330K
light: not shown
notes: copies: 2 + 2
B9: H237-MB546/MRAL-k0 (antibody)
heavy: B1 heavy
light: not shown
notes: copies: 2 + 2
B10: H237-MB723/MRAL-k0 (antibody, mouse IgG1, kappa)
heavy: B1 heavy with P230D, N231Y, V233E, M235D, L294S, D320N, R330K
light: not shown
notes: copies: 2 + 2
B11: H237-MB541/MRAL-k0 (antibody)
heavy: B1 heavy with D320N
light: not shown
notes: copies: 2 + 2
B12: H237-MB526/MRAL-k0 (antibody, mouse IgG1, kappa)
heavy: B1 heavy with E229Q, M235E, D320N, R330K
light: not shown
notes: copies: 2 + 2

The binders below were run against T1, mouse FcγRII extracellular domain, … (assay: SPR Biacore T200, KD ratio).

| relative mFcγRII-binding activity (mIgG1 = 1) [fold] | relative mFcγRII-binding activity (H237-mIgG1/MRAL-k0 = 1) [fold] | relative mFcγRII-binding activity (template H237-MB515/MRAL-k0 = 1) [fold] | Binder |
| --- | --- | --- | --- |
| 158 | – | – | B1 |
| 357 | ≥ 350 | ≥ 1.4 | B2 |
| 170 | – | – | B3 |
| 210 | – | – | B4 |

Molecular target: T2, mouse FcγRIII extracellular domain, …
Assay: SPR Biacore T200, KD ratio

| relative mFcγRIII-binding activity (mIgG1 = 1) [fold] | Binder |
| --- | --- |
| 5.6 | B1 |
| 3.9 | B2 |
| 4.5 | B3 |
| 5.4 | B4 |

Each binder was assayed against T1, mouse FcγRII extracellular domain, … (assay: SPR Biacore T200, KD ratio, template MB515).
Excerpt: (§1) The antibody H chain variable region used was the variable region H237 (SEQ ID NO: 1) of the H chain VH3-IgG1 of the anti-IL-6 receptor antibody Fv4-IgG1 described in WO2009/125825. The antibody L chain commonly used was the L chain MRAL-k0 (SEQ ID NO: 2) of the anti-IL-6 receptor antibody tocilizumab. H237-MB476/MRAL-k0 and H237-MB515/MRAL-k0 were used as templates to introduce new alterations. These variants were expressed and purified by the method of Reference Example 1 and evaluated for their binding to mFcγRII and mFcγRIII by the method of Reference Example 2 using Biacore T200.
(§2) Each altered antibody was analyzed for its interaction with each Fcγ receptor prepared above using Biacore T100 (GE Healthcare Japan Corp.), Biacore T200 (GE Healthcare Japan Corp.), Biacore A100, or Biacore 4000. The running buffer used was HBS-EP+ (GE Healthcare Japan Corp.). The assay temperature was set to 25° C. The sensor chips used were chips prepared by immobilizing Protein L (ACTIGEN or BioVision) onto Series S Sensor Chip CM5 (GE Healthcare Japan Corp.) or Series S Sensor Chip CM4 (GE Healthcare Japan Corp.) by the amine coupling method.
(§3) In order to calculate the KD value of each altered antibody for FcγR, kinetic analysis was conducted according to the following method: first, the antibody of interest was captured onto any of these chips and allowed to interact with mFcγR diluted with a running buffer. For the obtained sensorgram, the assay results were globally fit into the 1:1 Langmuir binding model using Biacore Evaluation Software to calculate an association rate constant ka (L/mol/s) and a dissociation rate constant kd (1/s). From these values, the dissociation constant KD (mol/L) was calculated.

| relative mFcγRII-binding activity (template = 1) [fold] | Binder |
| --- | --- |
| 1.15 | B1 |
| 2.6 | B2 |
| 1.24 | B3 |
| 1.53 | B4 |

Molecular target: T2, mouse FcγRIII extracellular domain, …
Assay: SPR Biacore T200, KD ratio, template MB515
Excerpt: as §1, §2, §3

| relative mFcγRIII-binding activity (template = 1) [fold] | Binder |
| --- | --- |
| 4.28 | B1 |
| 2.99 | B2 |
| 3.43 | B3 |
| 4.11 | B4 |

These binders were tested against T3, mouse FcγRII (assay: SPR (Biacore), KD of H237-mIgG1/MRAL-k0 / KD of variant).
Experimental: as §2, §3

| relative mFcγRII-binding activity (mIgG1 = 1) [fold] | Binder |
| --- | --- |
| 375 | B5 |
| 26.1 | B6 |
| 70.4 | B7 |
| 35 | B8 |
| 158 | B9 |
| 11 | B10 |
| 103 | B11 |
| 232 | B12 |

Molecular target: T4, mouse FcγRIII
Assay: as above
Experimental: as §2, §3

| relative mFcγRIII-binding activity (mIgG1 = 1) [fold] | Binder |
| --- | --- |
| 14.6 | B5 |
| 0.8 | B6 |
| 2.3 | B7 |
| 1.1 | B8 |
| 5.6 | B9 |
| 0.4 | B10 |
| 3.3 | B11 |
| 8.5 | B12 |

The binders below were run against T3, mouse FcγRII (assay: SPR (Biacore), antibody captured on Protein L).

| Kd [nM] | Binder |
| --- | --- |
| 0.56 | B5 |
| 8.04 | B6 |
| 2.98 | B7 |
| 5.99 | B8 |
| 1.33 | B9 |
| 19 | B10 |
| 2.04 | B11 |
| 0.904 | B12 |

Molecular target: T4, mouse FcγRIII
Assay: SPR (Biacore), antibody captured on Protein L

| Kd [nM] | Binder |
| --- | --- |
| 19.3 | B5 |
| 341 | B6 |
| 122 | B7 |
| 249 | B8 |
| 50 | B9 |
| 645 | B10 |
| 86.4 | B11 |
| 33 | B12 |
